# Results as given in patent US20240270826A1 (NATIONAL RESEARCH COUNCIL OF CANADA, published 2024).
# Read-outs that look alike come from different tables or passages of the source.
# B1: NRCoV2-S2F3 VHH (VHH)
# VHH: EVQLVQSGGGLVQAGGSLRLSCATSVRILSVPAMGWYRQAPGKEREMVAVITSGGSTNYADSVKGRFTISRDNAKNTVYLQMNSLKLEDTAVYQCNLRDILSQPFWGQGTQVTVSS
# B2: NRCoV2-MRed06 VHH (VHH)
# VHH: EVQLVESGGGLVQAGGSLRLSCAASGFTLAYYAIGWFRQAPGKEREGVSCISSSDGSAHYADSVKGRFTISRDNAKNTVSLQMNSLKPEDTAVYYCATDSFSSCSDYESGMDFWGKGTQVTVSS
# B3: NRCoV2-20 VHH (VHH)
# VHH: EVQLQQSGGGLVQPGGSLRLSCAASGRTFSNYVVGWFRQAPQAPGKDHEFVAVISGSDTETYYADSVKGRFTISRDNAKNTVYLQMNSLKPEDTAVYYCAADRGMSYYYTRATEYYYWGQGTQVTVSS
# B4: NRCoV2-SR04 VHH (VHH)
# VHH: QVQLVESGGGLVQAGGSLRLSCAASGRTFSSHTVGWYRQAPGKQRDLVAAISMGGNTNYADYADSVKGRFTISRDNAKNTLYLQMNSLKPEDTAVYYCNTAALVGNRLLPMATITWGQGTQVTVSS
# B5: NRCoV2-MRed20 VHH (VHH)
# VHH: EVQLVESGGGSVQAGGSLRLSCAASGLSFSSYDMGWFRQAPGKEREFVAAIRESGSGTYYADSVKGRFTISRDNAKNTVYLQVSSLKPEDTAVYTCAAKPPFYGSGTYSTPRAYLYWGQGTQVTVSS
# B6: NRCoV2-S2A4 VHH (VHH)
# VHH: QVQLVQSGGGLVQAGGSLRLSCAVSGSPFRSNVMEWYRQAPGKQRELVASISTGGSRTYTDSVKGRFTISRDNAKNEAFLQMNSLKPEDTAVYYCHAAARDSHGIYLLDTWGQGTQVTVSS
# B7: NRCoV2-MRed25 VHH (VHH)
# VHH: EVQLVESGGGLVQAGGSLRLSCAASGHTFSRYGMGWFRQAPGKEREFVAAISWRGDSTYYRDSVNGRFTISRDNAKNTVYLGMNSLKPEDTAVYYCAAEMWGTATIVASRYTYWGQGTQVTVSS
# B8: NRCoV2-SR03 VHH (VHH)
# VHH: AVQLVDSGGGLVQAGGSLRLSCAASGSIFSNNHMGWYRQAPGKQRELVAAISSGGKTNYADFAKGRFTISRDNAKNMVYLQMNSLKPEDTAVYYCNRGGWEYRSSYYIMGPHWGQGTQVTVSS
# B9: NRCoV2-MRed07 VHH (VHH)
# VHH: EVQLVESGGGLVQPGGSLTLSCAASGSIGPFNTMGWYRQAPGNQREPAAIITRGGVTNYADSVKGRFTISRDNAKNAVYLQMDSLKPDDTAVYYCYANYGWAIPYWGNGTQVTVSS
# B10: NRCoV2-MRed18 VHH (VHH)
# VHH: EVQLVESGGGLVQPGGSLRLSCAASTTVFGRNAMGWYRQAPGKERELVATVSDGGTPNYADSVKGRFTISRDNAKNTIYLQMNSLEPEDTAVYYCNYYNYYYGRNFWGQGTQVTVSS
# B11: NRCoV2-MRed19 VHH (VHH)
# VHH: EVQLVESGGGLVQPGGSLRLSCAASTIIFKGQTMGWFRQAPGNERELVATMTTSGSANYADSVKGRFTISRDNEKTVTLQMNSLKPEDTALYYCYMHSVYYGIDYWGKGTQVTVSS
# B12: NRCoV2-S2G4 VHH (VHH)
# VHH: QVQLVQSGGGLVQAGGSLTLSCAPSGSTFSGYATNWYRQAPGKQRELVATISSDGDKNYADSVKGRFTISRDNAKNTVYLQMNSLKPEDTAVYYCNKHWWTGDWWGQGTQVTVSS
# B13: NRCoV2-SR16 VHH (VHH)
# VHH: QVQLVQSAGGLVQAGGSLRLSCVVSGTTFSRYHMGWHRQAPGKQRDFVAGISTSGAVTYADSAKGRFTISRDNAKNTVYLEMNSLKLEDTALYYCNTGGWDYRSSTFIMGLNWGQGTQVTVSS
# B14: NRCoV2-MRed03 VHH (VHH)
# VHH: EVQLVESGGGLVQPGGSLRLSCAAIGFTLDYYAIGWFRQAPGKEREGVSCISSSDGSTYYADSVKGRFTISRDNAKNTVYLQMNSLKPEDTAVYYCATDAFATCDSWYAQIAQYDFRGQGTQVTVSS
# B15: NRCoV2-MRed11 VHH (VHH)
# VHH: EVQLVESGGGLVQAGGSLRLSCAASGFTFSSYAMSWHRQAPGKGLEWVSAINSGGGSTSYADSVKGRFAISRDNAKNTLYLQMNSLKPEDTAVYYCATTISDGSSWSTKSYRGQGTQVTVSS
# B16: NRCoV2-S2G3 VHH (VHH)
# VHH: QVQLVQSGGGSVQAGGSLRLSCAASGSTFGIFLMGWRRQAPGKQRELVAHITSGGATNYADSVKGRFTISRDNAKNTVYLQMNSLEPEDTAVYYCYTTKRDDASVYWGQGTQVTVSS
# B17: NRCoV2-MRed22 VHH (VHH)
# VHH: EVQLVESGGGLVQPGGSLRLSCAASGSVFASNAMGWYRQAPGKQRELVATISSRGSTNYADSVKGRFTISRDNAKNTVYLQMNSLGPEDTAVYYCNAREFTGFDYWGQGTQVTVSS
# Assays:
# [1] = target: SARS-CoV spike (S) (SARS-CoV, UniProt P59594 14-1195); test: SPR, VHH over immobilised S
# [2] = target: T1, Human SARS-CoV-2_Wuhan S (SmT1) (SARS-CoV-2 (Wuhan), UniProt P0DTC2 14-1208); test: SPR, VHH over immobilised S
# [3] = target: T1, Human SARS-CoV-2_Wuhan S (SmT1); test: SPR, VHH over immobilised S; remark: listed apart in the source
# [4] = target: Human SARS-CoV-2_Wuhan S (SmT1) (SARS-CoV-2 (Wuhan), UniProt P0DTC2 14-1208); test: flow cytometry SVNA, VHH vs biotin-S binding to Vero E6 ACE2
binder,measurement,setting,value
B1,Kd,[1],4.91 nM
same,koff,[1],0.00139 s⁻¹
same,kon,[1],282000 M⁻¹ s⁻¹
same,Kd,[2],3.03 nM
same,koff,[2],0.000473 s⁻¹
same,kon,[2],156000 M⁻¹ s⁻¹
same,Kd,[3],3.03 nM
B2,binding result,[1],no binding
same,Kd,[2],5.19 nM
same,koff,[2],0.000996 s⁻¹
same,kon,[2],192000 M⁻¹ s⁻¹
same,Kd,[3],5.2 nM
B3,IC50,[4],5.1 nM
same,IC99,[4],1370 nM
same,Imax %,[4],43%
B4,binding result,[1],no binding
same,Kd,[2],0.14 nM
same,koff,[2],0.000515 s⁻¹
same,kon,[2],3.68e+06 M⁻¹ s⁻¹
same,Kd,[3],0.14 nM
B5,Kd,[1],10.7 nM
same,koff,[1],0.00406 s⁻¹
same,kon,[1],380000 M⁻¹ s⁻¹
same,Kd,[2],0.0918 nM
same,koff,[2],1.46e-05 s⁻¹
same,kon,[2],160000 M⁻¹ s⁻¹
same,Kd,[3],0.092 nM
B6,binding result,[1],no binding
same,Kd,[2],12.8 nM
same,koff,[2],0.000446 s⁻¹
same,kon,[2],34900 M⁻¹ s⁻¹
same,Kd,[3],12.8 nM
B7,Kd,[1],2.29 nM
same,koff,[1],5.01e-05 s⁻¹
same,kon,[1],21800 M⁻¹ s⁻¹
same,Kd,[2],1.02 nM
same,koff,[2],0.000115 s⁻¹
same,kon,[2],112000 M⁻¹ s⁻¹
same,Kd,[3],1.02 nM
B8,binding result,[1],no binding
same,Kd,[2],1.69 nM
same,koff,[2],0.00113 s⁻¹
same,kon,[2],670000 M⁻¹ s⁻¹
same,Kd,[3],1.69 nM
B9,binding result,[1],no binding
same,Kd,[2],0.105 nM
same,koff,[2],0.000481 s⁻¹
same,kon,[2],4.58e+06 M⁻¹ s⁻¹
same,Kd,[3],0.11 nM
B10,Kd,[1],22.5 nM
same,koff,[1],0.00677 s⁻¹
same,kon,[1],300000 M⁻¹ s⁻¹
same,Kd,[2],6.03 nM
same,koff,[2],0.00119 s⁻¹
same,kon,[2],197000 M⁻¹ s⁻¹
same,Kd,[3],6.03 nM
B11,Kd,[1],24.6 nM
same,koff,[1],0.00614 s⁻¹
same,kon,[1],249000 M⁻¹ s⁻¹
same,Kd,[2],9.07 nM
same,koff,[2],0.00118 s⁻¹
same,kon,[2],131000 M⁻¹ s⁻¹
same,Kd,[3],9.07 nM
B12,Kd,[1],0.799 nM
same,koff,[1],0.000735 s⁻¹
same,kon,[1],920000 M⁻¹ s⁻¹
same,Kd,[2],0.232 nM
same,koff,[2],0.000207 s⁻¹
same,kon,[2],893000 M⁻¹ s⁻¹
same,Kd,[3],0.23 nM
B13,binding result,[1],no binding
same,Kd,[2],1.96 nM
same,koff,[2],0.000957 s⁻¹
same,kon,[2],488000 M⁻¹ s⁻¹
same,Kd,[3],2 nM
B14,binding result,[1],no binding
same,Kd,[2],0.508 nM
same,koff,[2],0.000121 s⁻¹
same,kon,[2],237000 M⁻¹ s⁻¹
same,Kd,[3],0.51 nM
B15,binding result,[1],no binding
same,Kd,[2],6.2 nM
same,koff,[2],0.000283 s⁻¹
same,kon,[2],45700 M⁻¹ s⁻¹
same,Kd,[3],6.2 nM
B16,Kd,[1],4.27 nM
same,koff,[1],0.0008 s⁻¹
same,kon,[1],187000 M⁻¹ s⁻¹
same,Kd,[2],1.87 nM
same,koff,[2],0.000606 s⁻¹
same,kon,[2],324000 M⁻¹ s⁻¹
same,Kd,[3],1.87 nM
B17,binding result,[1],no binding
same,Kd,[2],0.506 nM
same,koff,[2],0.000176 s⁻¹
same,kon,[2],347000 M⁻¹ s⁻¹
same,Kd,[3],0.51 nM
